One assay has as its system MIK1^LRR. Description: ITC, AtLURE1.2 titrated into MIK1^LRR. It counts as binding, Arabidopsis. The conditions noted are these: 25 °C, 200 mM HEPES pH 7.0, 100 mM NaCl, twenty injections of 0.5 mM AtLURE1.2 into 0.05 mM MIK1LRR. From the text:
(§1) The genes of AtPRK3 ^LRR (residues 1–241), AtPRK4 ^LRR (residues 1–277), AtPRK5 ^LRR (residues 1–279), AtPRK6 ^LRR (residues 1–262), MIK1 ^LRR (residues 1–633), MIK2 ^LRR (residues 1–707) were amplified from Arabidopsis cDNA library by PCR and cloned into pFastBac-1 vector with a C-terminal 6 × His-tag. Their identities were confirmed by sequencing. The mature form of AtLURE1.1 (residues 20–94), AtLURE1.2 (residues 20–90), AtLURE1.3 (residues 21–91), and AtLURE1.4 (residues 20–90) were cloned into pFastBac-1 vector, with a modified N-terminal hemolin signal peptide and 6 × His-SUMO tag. Point mutation constructs were generated by QuickChange Site-Directed Mutagenesis Kit (Strategene). All the proteins were expressed using the Bac-to-Bac baculovirus expression system (Invitrogen) in High Five cells at 22 °C. One liter of High Five cells (2.0 × 10^6 cells mL^−1) cultured in the medium from Expression Systems was infected with 25 ml recombinant baculovirus and the media was collected after 72 h of infection. Secreted LRR proteins were purified using Ni-NTA (Novagen) and size-exclusion chromatography (Hiload 200, GE Healthcare) in buffer containing 10 mM Bis-Tris pH 6.0 and 100 mM NaCl. […]
Supplementary Figure 6: Binding affinity between MIK1LRR, MIK2LRR and AtLURE1.2 was not detected in ITC assay. […]

In the next assay the test system is PRK6 N239A. Description: In vitro pull-down with AtPRK6^LRR mutant N239A. Format: binding, Arabidopsis thaliana.
Text: as §1
The purified His-tagged ectodomains of AtPRK proteins and MIK1, 2 were used to pull-down the AtLURE1.2 peptide. […] All the eluted samples were analyzed by SDS-PAGE and visualized by Coomassie blue staining. […]

Entries after “also recorded” stand apart in the source; their conditions may differ.

B1: AtLURE1.2: mature form of AtLURE1.2 (residues 20–90), defensin-like cysteine-rich peptide expressed in insect cells (protein)
chain: TLINGSSDEERTYSFSPTTSPFDPRSLNQELKIGRIGYCFDCARACMRRGKYIRTCSFERKLCRCSISDIK
modifications: left off: His6, N-terminal, cleaved | SUMO, N-terminal, cleaved
notes: mature form of AtLURE1.2 (residues 20–90), defensin-like cysteine-rich peptide expressed in insect cells
For the molecule B1, the “binding in ITC” value in the assay on MIK1^LRR is recorded as “not detected; also recorded: no obvious heat was produced; also recorded: none of the purified AtPRK3^LRR, MIK1^LRR or MIK2^LRR proteins showed detectable interaction”. The “AtLURE1.2 binding activity of receptor mutant” value in the assay with PRK6 N239A is given as “still retained the AtLURE1.2 binding activity”.

Source of the values: publication PMC5673899, “Structural basis for receptor recognition of pollen tube attraction peptides” (Nature Communications, 2017).
